Here are results for six molecules from patent US20230218735A1 (Pfizer, published 2023).

Test [1] deals with T1, genetically modified and chemically inactivated C. difficile toxoid A (Clostridium difficile, UniProt P16154 2-2710).
T1 construct: also called TxdA; the toxoid
Nature of the test: ITC.

The target in another test is C. difficile toxin A (Clostridium difficile, UniProt P16154 1-2710). Nature of the test: cell-based or functional assay.

B1: hCDIFA-45 (antibody, V domains shown)
VH: QVQLVQSGPEVRKPGTSVKFSCKASGFTFTSAAMQWVRQARGQRLEWIGWIVVDSGNTNYAQKFQERVTITRDMSTSTVYMELSSLRSEDTAMYYCAASRGIVGTRGLFDSWGQGTLVTVSS
VL: EIVLTQSPSSLSSSVGDRVTITCRASQSIRNYLNWYQQKPGKAPKLLIYGASSLQSGVPPRFSGSGFGTDFTLTISNLQPEDFASYSCQQTYSTPLTFGGGTKLEIKR
For the molecule B1, in test [1], the “DH” value was -17.6 kcal/mol, binding was put at a Kd of 0.3 nM and the Stoichiometry amounted to 0.98. Further, in the test with C. difficile toxin A, the “EC50 TcdA [RLU], toxin neutralization assay (TNA) on IMR90 cells” value (“EC50 TcdA [RLU]” for short) came out at 1490 RLU.

B2: hCDIFA-46 (antibody, V domains shown)
VH: EVQLVESGGGLVQPGGSLRLSCAASGFTVSRNYMTWVRQAPGKGLEWVSVIYSGGSTYHADSVKGRFTISRDNSKNTLNLQMSSLRAEDTAVYYCARPCPGSSISCDYNMDVWGQGTTVTVSS
VL: QAVVTQPASVSGSPGQSITISCTGTSSDVGGYNYVSWYQQHPGKAPKLIIYEVSNRPSGVSNRFSGSKSGNTASLTISGLQAEDEADYYCTSYTSSSMIDVFGTGTKLTVLG
As to B2, in test [1], the “DH” value is -11.3 kcal/mol; the Kd (as a rule, the concentration at which binding is half-saturated) amounted to 3 nM; the Stoichiometry turned out to be 1. In addition, the “EC50 TcdA [RLU]” value with C. difficile toxin A worked out at 1490 RLU.

B3: hCDIFA-56 (antibody, V domains shown)
VH: QVQLVQSGAEVKKPGASVKVSCKVSGYTLPELSMHWVRQAPGKGLEWMGGFDPEDDDTIYAQKFQGRVTMTEDTSTDTAYLELSSLRSEDTAVYYCATDSSPLYNENYFGSAAFDVWGQGTTVTVSS
VL: AIRMTQSPSSLSASVGDRVTITCRASQGISTYLAWYQQKPGKAPKLLLYAASRLESGVPSRFSGSGSGTDYTLTINSLQPEDFATYYCQQYDRMPRTFGQGTKVEIKR
Turning to B3, in test [1], the “DH” value is -10.3 kcal/mol, the Kd is 5 nM and the Stoichiometry amounted to 0.78. In addition, in the test with C. difficile toxin A, the “EC50 TcdA [RLU]” value amounted to 111000 RLU.

B4: hCDIFA-11 (antibody, V domains shown)
VH: QVQLVQSATEMKKPGASVKVSCKASGYTFSDSYMHWVRQAPGQGLEWMGWINPDSGGTNYAQKFKGWVTMTRDTSINTVYMELRRLRSDDTAVYYCARDGGDYARHSLDYWGQGTLVTVSS
VL: DVVMTQSPGTLSLSPGERVTLSCRASQSVNSDYLVWYQQKPGQAPRLLIYGASSRATGIPDRFSGSGSGPDFTLTISRLEPEDVAVYYCQLYGGLFTFGQGTRLEIKR
As to B4, in test [1], the “DH” value was -17.9 kcal/mol; the affinity, expressed as Kd, was 4 nM; the Stoichiometry was found to be 0.97. Further, in the test with C. difficile toxin A, the “EC50 TcdA [RLU]” value was 60 RLU.

B5: hCDIFA-7 (antibody, V domains shown)
VH: QVQLRESGPGLVKPSETLSLTCTVSGGSVSNYYWSWIRQPPGKGLEWIGYIYSSGTINFNPSLKGRVTISGDTSKNQFSLKLSSVTAADTAVYYCARSGKWALGAFDIWGQGTMVTVSS
VL: QSALTQPPSVSGAPGQRVTISCTGSSSNIGTGYDVHWYQQLPGKVPKLLIHGNGDRPSGVPDRFSASKSGTSASLAITGLQSEDEGDYYCQSYDNSLSGLVVFGGGTKLTVLG
Consider B5, for which, in test [1], the “DH” value is -13.5 kcal/mol, the dissociation constant Kd stood at 118 nM and the Stoichiometry amounted to 2.94. In addition, the “EC50 TcdA [RLU]” value in the test with C. difficile toxin A turned out to be 13300 RLU.

B6: hCDIFA-8 (antibody, V domains shown)
VH: QVQLVESGGGLVKPGGSLRLSCAASGFTFSTSSMNWVRQAPGKGLEWVSSINTSGDYIYYTDSVKGRFTISRDNAKNSLYLQMNSLRAEDTAVYYCARDLGTWRDYWGQGTLVTVSS
VL: QSVLTQPASVSGSPGQSITISCTGTSSDVGSYNLVSWYHQHPGKAPKLIIYEVSKRPSGVSNRFSGSKSGNTASLTISGLQAEDEADYYCYSYAGSSAFAWVFGTGTKLTVLG
As for B6, in test [1], the “DH” value is -6.9 kcal/mol, the dissociation constant Kd is 20 nM and the Stoichiometry turned out to be 2.02. Moreover, the “EC50 TcdA [RLU]” value with C. difficile toxin A worked out at 35400 RLU.
